This passage reports activity (% chromosomes modified) results from patent US20090042250.

Holding throughout (test): cell_activity
In data set [1] the test system is ZFN 12176 (synthetic construct). To be noted: pair 12172/12176 (3.0 with 12170), CHO K-1, Cel-1 assay 2 days post-transfection.
The subject of data set [2] is ZFN 12030 (synthetic construct). To be noted: pair 12029/12030, CHO K-1, Cel-1 assay 2 days post-transfection.
Data set [3] deals with ZFN 12172 (synthetic construct). The settings on record: pair 12172/12176, CHO K-1, Cel-1 assay 2 days post-transfection.
Data set [4] relates to ZFN 12170 (synthetic construct). The settings on record: pair 12170/12176, CHO K-1, Cel-1 assay 2 days post-transfection.
For data set [5], the system named is ZFN 12029 (synthetic construct). The settings on record: pair 12029/12030, CHO K-1, Cel-1 assay 2 days post-transfection.

In data set [1], “AAGAAGGGTCATCAG (double strand) [FUT8 exon 10 12176 half-site]” showed an activity (% chromosomes modified) of 4.4.

“AAGGACACACTG (double strand) [FUT8 12030 half-site]” showed an activity (% chromosomes modified) in data set [2] of 3.3.

Regarding “AAGGAGGCAAAGACAAAG (double strand) [FUT8 exon 10 12170/12172 half-site]”, the activity (% chromosomes modified) in data set [3] was 4.4; in data set [4], 3.

In turn, “GTCTCGGATGCT (double strand) [FUT8 12029 half-site]” came in with an activity (% chromosomes modified) in data set [5] of 3.3.
